Results reported in paper PMC5815017.
pKd: −log10 of the molar value.

What was measured:
[1] = molecular target: T1, ParB (Caulobacter crescentus) (UniProt B8GW30); test: SPR; conditions: value assigned by figure order; SPR (ReDCaT, Biacore T200), HBS-EP+: 10 mM HEPES pH 7.4, 150 mM NaCl, 3 mM EDTA, 0.005% Surfactant P20, 25 C; ParB given as dimer
T1 sequence: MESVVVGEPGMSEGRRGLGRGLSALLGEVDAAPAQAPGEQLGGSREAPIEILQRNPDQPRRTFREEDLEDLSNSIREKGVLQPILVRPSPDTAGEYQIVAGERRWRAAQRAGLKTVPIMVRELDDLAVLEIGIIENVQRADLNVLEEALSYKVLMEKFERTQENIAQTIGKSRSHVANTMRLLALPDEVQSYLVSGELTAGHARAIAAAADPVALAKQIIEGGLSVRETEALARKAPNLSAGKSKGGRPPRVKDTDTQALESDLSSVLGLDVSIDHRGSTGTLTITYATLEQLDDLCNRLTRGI

[2] = molecular target: T2, Spo0J (ParB) (Bacillus subtilis) (UniProt P26497); test: SPR; conditions: apparent Kd; SPR (ReDCaT, Biacore T200), HBS-EP+: 10 mM HEPES pH 7.4, 150 mM NaCl, 3 mM EDTA, 0.005% Surfactant P20, 25 C; ParB given as dimer
T2 sequence: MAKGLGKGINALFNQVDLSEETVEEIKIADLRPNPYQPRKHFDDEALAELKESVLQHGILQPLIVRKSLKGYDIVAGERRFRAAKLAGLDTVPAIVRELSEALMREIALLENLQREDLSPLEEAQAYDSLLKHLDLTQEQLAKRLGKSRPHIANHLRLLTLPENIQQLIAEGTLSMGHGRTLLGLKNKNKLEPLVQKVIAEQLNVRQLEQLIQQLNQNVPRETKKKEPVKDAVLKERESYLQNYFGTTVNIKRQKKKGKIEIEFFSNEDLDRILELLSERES

Sequence	pKd [1]	pKd [2]
CGATGTTTCCACGTGAAACAAGGC / GCCTTGTTTCACGTGGAAACATCGCCTACCCTACGTCCTCCTGC [parS site 7]	6.84	
AGAATGTTCCACGTGAAACAAAGA / TCTTTGTTTCACGTGGAACATTCTCCTACCCTACGTCCTCCTGC [B. subtilis parS 359]		6.94
